Source: patent publication US20240239892A1 (SUZHOU KANOVA BIOPHARMACEUTICAL, published 2024)

How the values were obtained:
[1] = biological target: T1, PD-1 (analyte of the SPR assay of Example 3) (human, UniProt Q15116 21-167, limits assumed); assay: SPR (Biacore 8K), antibody captured by anti-human Fc, PD-1 as analyte
T1 construct: also called human PD-1
Protocol: Anti-human Fc gamma specific antibody (Jackson ImmunoResearch #109-005-098) was immobilized onto the sensor chip using amine coupling method. […] After equilibration, PD-1 was injected for 200 seconds (association phase) followed by the injection of running buffer for 600s (dissociation phase). Responses of reference flow cell (flow cell 1) were subtracted from those of humanized antibodies flow cells during each cycle. The surface was regenerated before the injection of other humanized antibodies. The process was repeated until all antibodies are analyzed. The off-rates of humanized antibodies were obtained from fitting the experimental data locally to 1:1 interaction model using the Biacore 8K evaluation software. The antibodies were ranked by their dissociation rate constants (off-rates, kd).

[2] = biological target: T2, his-tagged human PD-1 recombinant protein (PD-1/6His, in-house production, extracellular domain Pro21-Gln167) (human, UniProt Q15116 21-167); assay: ELISA, plate coated with human PD-1/His; human PD-1
T2 construct: range 21-167; also called human PD-1/His; not shown: 6His tag
Protocol: (§1) MaxiSorp 96-well plates (NUNC #449824) were coated with 2 μg/mL human PD-1/His (in-house production) or cynomolgus PD-1/His protein (ACROBiosystems #PD1-C5223) in 1× PBS (50 μL/well). Plates were incubated at 4° C. overnight. Coating solution was removed and plates were washed once with 200 μL/well PBST (1× PBS containing 0.05% tween-20). Then 200 μL/well blocking buffer (1× PBS with 0.05% tween-20, 3% BSA) was added and incubated at room temperature for 1 hour. Blocking buffer was removed and plates were washed with three times with 200 μL/well PBST. […] Plates were incubated at room temperature for 2 hours. Antibodies in the wells were removed and plates were washed three times with 200 μL/well PBST. Goat anti-human IgG (H&L)-HRP secondary antibody (Jackson Immuno Research #109-035-088) was diluted 1:5000 in 1× PBS and added to each well (50 μL/well). Plates were incubated at room temperature for 1 hour. Secondary antibody was removed and plates were washed five times with 200 μL/well PBST. 50 μL/well TMB (eBioscience #85-00-4201-56) was added and plates were incubated at room temperature for several minutes. Then 50 μL/well 2N H2SO4 was added to stop the reaction. Optical density was measured at 450 nm.

[3] = biological target: T3, chimeric PD-1 receptor on Jurkat cells (Jurkat/PD-1-CD3z/NF-luci cells) (human, UniProt Q15116 25-191; P20963 52-164, limits assumed); assay: flow cytometry on human PD-1-expressing Jurkat cells
T3 construct: domain: extracellular and transmembrane domains;domain: cytoplasmic domain; also called human PD-1 expressed on Jurkat; Human PD-1-expressing Jurkat cells
Protocol: Then cells were washed once by FACS buffer (PBS with 2% FBS) and incubated with Alexa Fluor 594 AffiniPure Goat Anti-human IgG secondary antibody (Jackson ImmunoResearch #109-585-088) at 4° C. for 30 minutes. After washed once by FACS buffer, cells were resuspended in 200 μL FACS buffer. The cells after staining were analyzed by BD LSRFortessa Flow Cytometer.

[4] = biological target: T3, chimeric PD-1 receptor on Jurkat cells …; assay: cell-based or functional assay
[5] = biological target: T4, cynomolgus PD-1/His protein (ACROBiosystems #PD1-C5223) (cynomolgus, UniProt B0LAJ3 25-170); assay: ELISA, plate coated with cynomolgus PD-1/His
T4 construct: Commercial protein
Protocol: as §1

T1 sequence (Q15116 21-167 limits assumed): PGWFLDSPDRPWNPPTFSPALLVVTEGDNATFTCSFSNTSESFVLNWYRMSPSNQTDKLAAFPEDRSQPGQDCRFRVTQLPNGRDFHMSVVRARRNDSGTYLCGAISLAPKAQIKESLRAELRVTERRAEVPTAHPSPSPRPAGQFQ
T3 sequence (Q15116 other isoform, or with tags, fused parts or gaps mutant limits assumed): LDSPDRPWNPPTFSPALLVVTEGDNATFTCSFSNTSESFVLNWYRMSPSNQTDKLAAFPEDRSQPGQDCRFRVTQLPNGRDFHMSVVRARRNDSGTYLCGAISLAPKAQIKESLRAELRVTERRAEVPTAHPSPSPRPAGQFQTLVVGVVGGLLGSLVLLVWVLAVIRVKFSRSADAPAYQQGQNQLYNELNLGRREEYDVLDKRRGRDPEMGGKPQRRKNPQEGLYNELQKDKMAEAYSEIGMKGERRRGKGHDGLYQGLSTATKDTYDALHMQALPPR
T4 sequence (B0LAJ3 entry or part of it limits assumed): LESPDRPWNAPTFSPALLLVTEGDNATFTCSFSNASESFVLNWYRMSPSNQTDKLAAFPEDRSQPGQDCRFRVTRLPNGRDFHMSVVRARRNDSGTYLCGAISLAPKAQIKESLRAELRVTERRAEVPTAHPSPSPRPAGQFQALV
T2 sequence (Q15116 21-167 limits assumed): as the sequence (Q15116 21-167 limits assumed) above

| Binder | Kd [1] [nM] | koff [1] [s⁻¹] | kon [1] [M⁻¹ s⁻¹] | EC50 [2] [nM] | EC50 [3] [nM] | EC50 (nM), inhibition of luciferase signal [4] [nM] | EC50 [5] [nM] |
| --- | --- | --- | --- | --- | --- | --- | --- |
| Chimeric VH + VL (antibody, human IgG1, kappa, V domains shown, also called Parental mouse VH+VL combined with human Fc; parental antibody) VH: EVKLVESGGGLVKPGGSLKLSCAASGFTFSSYGMSWVRQTPEKRLEWVAIISGGGRDIYYLDSVKGRFTISRDNAKNNLYLQMSSLRSEDTAFYYCSSPIYDAYSFAYWGQGTLVTVSA VL: DIVLVQSPATLSVTPGDSVSLSCRASQTISNNLHWYHQKSHESPRLLIKYASQSISGIPSRFSGSGSGTDFTLSINSVETEDFGMYFCQQSYSWPLTFGAGTNLELKR | 0.787 | 0.000163 | 207000 | – | – | – | – |
| VH6 + VL1 (antibody, human IgG1, kappa, V domains shown, Humanized full-length IgG expressed in HEK293; For SPR it was captured from culture medium through its Fc; also called HC1 + LC1) VH: EVQLVESGGGLVQPGGSLRLSCAASGFTFSSYGMSWVRQAPGKRLEWVAIISGGGRDIYYLDSVKGRFTISRDNSKNTLYLQMNSLRAEDTAVYYCSSPIYDAYSFAYWGQGTLVTVSS VL: EIVMTQSPATLSVSPGERATLSCRASQTISNNLHWYQQKPGQAPRLLIYYASQSISGIPARFSGSGSGTEFTLTISSLQSEDFAVYYCQQSYSWPLTFGGGTKLEIKR | 3.57 | 0.000404 | 113000 | – | – | – | – |
| anti-PD-1 antibody VH7+VL6 (antibody, human IgG1, kappa, V domains shown, also called HC2 + LC2) VH: EVQLVESGGGLVQPGGSLRLSCAASGFTFSSYGMSWVRQAPGKGLEWVAIISGGGRDIYYLDSVKGRFTISRDNSKNNLYLQMNSLRAEDTAVYYCSSPIYDAYSFAYWGQGTLVTVSS VL: EIVLTQSPATLSVSPGERATLSCRASQTISNNLHWYHQKPGQAPRLLIKYASQSISGIPSRFSGSGSGTDFTLTISSLQSEDFAVYFCQQSYSWPLTFGGGTKLEIKR | 1.41 | 0.000218 | 154000 | 0.1 | 2.16 | 0.38 | 0.4 |
| VH6 + VL6 (antibody, human IgG1, kappa, V domains shown, Humanized full-length IgG expressed in HEK293; also called HC1 + LC2) VH: EVQLVESGGGLVQPGGSLRLSCAASGFTFSSYGMSWVRQAPGKRLEWVAIISGGGRDIYYLDSVKGRFTISRDNSKNTLYLQMNSLRAEDTAVYYCSSPIYDAYSFAYWGQGTLVTVSS VL: EIVLTQSPATLSVSPGERATLSCRASQTISNNLHWYHQKPGQAPRLLIKYASQSISGIPSRFSGSGSGTDFTLTISSLQSEDFAVYFCQQSYSWPLTFGGGTKLEIKR | 0.812 | 0.000127 | 156000 | – | – | – | – |
| VH7 + VL1 (antibody, human IgG1, kappa, V domains shown, Humanized full-length IgG expressed in HEK293; also called HC2 + LC1) VH: EVQLVESGGGLVQPGGSLRLSCAASGFTFSSYGMSWVRQAPGKGLEWVAIISGGGRDIYYLDSVKGRFTISRDNSKNNLYLQMNSLRAEDTAVYYCSSPIYDAYSFAYWGQGTLVTVSS VL: EIVMTQSPATLSVSPGERATLSCRASQTISNNLHWYQQKPGQAPRLLIYYASQSISGIPARFSGSGSGTEFTLTISSLQSEDFAVYYCQQSYSWPLTFGGGTKLEIKR | 3.04 | 0.000317 | 104000 | – | – | – | – |
